Patent US20250290928A1, “METHOD, KIT AND DEVICE FOR DETECTING EXTRACELLULAR VESICLES” (priority 2022, published 2025)
No end group written: not given here. *: point of attachment. 5FAM = O=C1OC2(c3ccc(O)cc3Oc3cc(O)ccc32)c2ccc(C(=O)*)cc21; TQ2 = quencher

How the values were obtained:
[1] = target: T1, MMP14 in the MDA-MB-231-derived extracellular vesicles (Homo sapiens, UniProt P50281); assay: Evaluation of MMP14 activity of MDA-MB-231-derived extracellular vesicles with 96-well plate; type: biochemical
T1 construct: in terms of intact MMP14 with a molecular weight of 70 kDa
Method: A relative fluorescence unit difference ΔRFU was calculated by subtracting the measured value of the sample for BG measurement from the measured value of each of the samples.
The concentration of the solution is 41.7 μg/mL. The concentration of the solution was set to x1, and 2-fold serial dilution was performed to prepare standard samples with six concentrations.
50 μL of the MMP14 detection solution was added to 50 μL of each of the samples, a reaction was performed at 37° C., and MMP14 activity was evaluated.
The concentration of the solution is 10 μg/mL.
50 μL of each of the MMP14 detection solutions was added to 50 μL of each of the samples, a reaction was performed at 37° C., and MMP14 activity was evaluated. […]
The concentration of the solution is 20 μg/mL. The concentration of the solution was set to x1, and 3-fold serial dilution was performed to prepare standard samples with three concentrations.
The concentration of the solution is 8 μg/mL.
50 μL of each of the MMP14 detection solutions was added to 50 μL of the sample, a reaction was performed at 37° C., and MMP14 activity was evaluated. […]
50 μL of the MMP14 detection solution was added to 50 μL of each of the samples, a reaction was performed at 30° C., and MMP14 activity was evaluated.
The MMP14 activity of the extracellular vesicles was evaluated with a 96-well plate (137101). A fluorescence intensity was measured with a fluorescence plate reader (Synergy) at 30° C. every 5 minutes for 2 hours. For measurement wavelengths, an excitation wavelength of 545±20 nm and a fluorescence wavelength of 588±20 nm were used. A relative fluorescence unit difference (ΔRFU) was calculated by subtracting the measured value of the sample for BG measurement from the measured value of each of the samples.
50 μL of each of the MMP14 detection solutions was added to 50 μL of each of the samples, a reaction was performed at 30° C., and MMP14 activity was evaluated.

[2] = target: T1, MMP14 in the MDA-MB-231-derived extracellular vesicles; assay: Digital detection of MDA-MB-231-derived extracellular vesicles through MMP14 activity in wells (microcompartments); type: biochemical; settings: for Extracellular vesicle concentration: at a concentration of x1, 50 fL; for Expected value λ / Number of positives / Positive ratio: Example 38, EV 2.5 μg/mL, reporter 5 μM, 30° C.
Method: The concentration of the solution is 6.7 μg/mL.
100 μL of the MMP14 detection solution was added to 100 μL of the sample to provide a reaction solution for wells. […] 100 μL of 200 μL of the prepared reaction solution for wells was used in the measurement of MMP14 activity with a 96-well plate.
Next, the wells were filled with the reaction solution by leaving the well array 200 to stand under reduced pressure to degas the space 205. After that, the space 205 was fed with hydrophobic solvents to be sealed. Fluorinated oils AsahiKlin AE-3000 (manufactured by AGC Inc.) and Fomblin Y-25 (manufactured by Solvay S.A.) were used as the hydrophobic solvents. A fluorinated oil Simoa (trademark) SR-X Sealing Oil: 102767 (manufactured by Quanterix Corporation) was further used as another hydrophobic solvent.
Well diameter: 4.25 μm Well depth: 3.25 μm Well capacity: 50 fL Number of wells in array: 239,000 Array range: 3 mm×4 mm
The concentration of the solution is 20 μg/mL. […] The concentration of the solution was set to x1, and 10-fold serial dilution was performed to prepare standard samples with five concentrations.
Next, the wells were filled with the reaction solution by leaving the well array 200 to stand under reduced pressure to degas the space 205. After that, the space 205 was fed with hydrophobic solvents to be sealed.
The concentration of the solution is 20 μg/mL. […] The concentration of the solution was set to x1, and 3-fold serial dilution was performed to prepare standard samples with three concentrations.
The concentration of the solution is 20 μg/mL. […] The concentration of the solution was set to x1, and 2-fold serial dilution was performed to prepare standard samples with four concentrations.
The concentration of the solution is 5 μg/mL.
50 μL of the MMP14 detection solution was added to 50 μL of the sample to provide a reaction solution for wells.
50 μL of each of the MMP14 detection solutions was added to 50 μL of the sample to provide a reaction solution for wells.
The concentration of the solution is 6.7 µg/mL.

[3] = Example 37, EV 5 μg/mL, reporter 5 μM, buffer (4)
[4] = MP, 1.25 μM with 5 μM Custom #2TF3
[5] = MP, 2.5 μM with 2.5 μM Custom #2TF3

Substance	Fluorescence change after 2 hours of reaction at 30° C. [1, 3]	Fluorescence change after 2 hours of reaction at 30° C. [1, 4]	Fluorescence change after 2 hours of reaction at 30° C. [1, 5]	Expected value λ (×1) ([2]; Example 38, 4 hr)	Extracellular vesicle concentration ([2]; Example 38, 4 hr)	Expected value λ (×1) ([2]; Example 38, 24 hr)	Extracellular vesicle concentration ([2]; Example 38, 24 hr)	Expected value λ ([2]; 4 hr)	Number of positives ([2]; 4 hr)	Positive ratio ([2]; 4 hr)	Expected value λ ([2]; 24 hr)	Number of positives ([2]; 24 hr)	Positive ratio ([2]; 24 hr)
TQ2-WYPAGLRMVK(5-FAM) (TQ2-WYPAGLRMVK(5FAM)) [Custom #13]	19,279 ΔRFU	7,073 ΔRFU	9,939 ΔRFU	0.5455	1.091e+10 mL⁻¹	1.05	2.101e+10 mL⁻¹	0.1364	3,573	0.1275	0.2626	6,485	0.2309
TQ2-FMPLGLRGIK(5-FAM) (TQ2-FMPLGLRGIK(5FAM)) [Custom #12]	32,801 ΔRFU	13,343 ΔRFU	19,102 ΔRFU	0.5189	1.0377e+10 mL⁻¹	1.232	2.464e+10 mL⁻¹	0.1297	3,416	0.1216	0.308	7,423	0.2651
TQ2-WPHGSLQAAK(5-FAM) (TQ2-WPHGSLQAAK(5FAM)) [Custom #16]	4,424 ΔRFU	852 ΔRFU	1,489 ΔRFU	0.06766	1.353e+09 mL⁻¹	0.3923	7.845e+09 mL⁻¹	0.01692	471	0.01677	0.09807	2,623	0.09341
TQ2-DLPAGLQARK(5-FAM) (TQ2-DLPAGLQARK(5FAM)) [Custom #14]	34,878 ΔRFU	9,504 ΔRFU	14,104 ΔRFU	0.9841	1.968e+10 mL⁻¹	1.5709	3.142e+10 mL⁻¹	0.246	6,120	0.2181	0.3927	9,120	0.3248
